Patent publication US20250163164A1 (LANOVA MEDICINES DEVELOPMENT, published 2025)
Numbering of substitutions follows the chain as printed. Each block holds one binder with its values, some of them ahead of it.

Target: T1, human interleukin 13 receptor subunit alpha 2 (IL-13RA2) (human, UniProt Q14627 27-380)
T1 construct: whole, on cells; also called IL-13Rα2; CD213A2
T1 sequence (looked up): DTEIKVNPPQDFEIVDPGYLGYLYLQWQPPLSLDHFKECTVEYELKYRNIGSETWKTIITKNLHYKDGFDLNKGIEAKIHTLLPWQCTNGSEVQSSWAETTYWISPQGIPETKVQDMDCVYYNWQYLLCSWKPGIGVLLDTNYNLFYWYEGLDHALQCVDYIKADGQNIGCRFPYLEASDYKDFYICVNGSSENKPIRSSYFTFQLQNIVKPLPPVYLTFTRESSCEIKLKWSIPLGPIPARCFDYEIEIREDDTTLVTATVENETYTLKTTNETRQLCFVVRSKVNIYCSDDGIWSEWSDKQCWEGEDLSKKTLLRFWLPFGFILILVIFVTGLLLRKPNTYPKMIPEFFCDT
Experiment: FACS on A375 cells
Method: A375 cells that endogenously expressed IL-13RA2, were harvested from flasks. 100 μl of 1×10⁶ cells/ml of cells were incubated with primary humanized antibodies in 4-fold serial dilutions starting from 200 nM to 0.003 nM for 30 minutes on ice. After being washed with 200 μl of FACS buffer twice, cells were incubated with secondary antibody for 30 minutes on ice. Cells were washed with 200 μl of FACS buffer twice and analyzed by FACS.

EC50: 0.15 nM
Top (MFI): 22400 MFI
B1: 61H8C1 H2L2 hIgG1 (antibody, V domains shown)
VH: QVQLVQSGAEVAKPGASVKVSCKASGYTFTSYWTQWIRQAPGQGLEGMGAIYPGDDDTSYNQKFKGRVTMTADTSTSTVYMELSSLRSEDTAVYYCARGATLLRPFPYWGQGTLVTVSS
VL: DIQMTQSPSSLSTSVGDRVTITCKASQDVSTAVAWYQQKPGKSPKLLIYSASYRYTGVPSRFSGSGSGTDFTLTISSLQPEDFATYSCQQHYSIPPTFGQGTKLEIK
notes: humanized, hIgG1

EC50: 0.19 nM
Top (MFI): 21600 MFI
B2: 61H8C1 H4L4 hIgG1 (antibody, V domains shown)
VH: B1 VH with V20L, R38K, M48I, R67K, V68A, M70L, T74K, V79A, E82Q
VL: B1 VL with Q3V, S60D, S63T, L73F, L78V, Q100G
notes: humanized, hIgG1

EC50: 0.17 nM
Top (MFI): 19800 MFI
B3: 61H8C1 H1L4 hIgG1 (antibody, V domains shown)
VH: B1 VH with A12K, I37V, G47W, A72R
VL: B1 VL with Q3V, S60D, S63T, L73F, L78V, Q100G
notes: humanized, hIgG1

EC50: 0.17 nM
Top (MFI): 22300 MFI
B4: 61H8C1 H3L2 hIgG1 (antibody, V domains shown)
VH: B1 VH with M48I, V68A, M70L, T74K, E82Q
VL: B1 VL
notes: humanized, hIgG1

EC50: 0.14 nM
Top (MFI): 20300 MFI
B5: 61H8C1 H1L1 hIgG1 (antibody, V domains shown)
VH: B1 VH with A12K, I37V, G47W, A72R
VL: B1 VL with T13A, S43A, S87Y
notes: humanized, hIgG1

EC50: 0.18 nM
Top (MFI): 20800 MFI
B6: 61H8C1 H4L3 hIgG1 (antibody, V domains shown)
VH: B1 VH with V20L, R38K, M48I, R67K, V68A, M70L, T74K, V79A, E82Q
VL: B1 VL with S60D, L73F, Q100G
notes: humanized, hIgG1

EC50: 0.15 nM
Top (MFI): 20100 MFI
B7: 61H8C1 H3L3 hIgG1 (antibody, V domains shown)
VH: B1 VH with M48I, V68A, M70L, T74K, E82Q
VL: B1 VL with S60D, L73F, Q100G
notes: humanized, hIgG1

EC50: 0.14 nM
Top (MFI): 21100 MFI
B8: 61H8C1 H4L2 hIgG1 (antibody, V domains shown)
VH: B1 VH with V20L, R38K, M48I, R67K, V68A, M70L, T74K, V79A, E82Q
VL: B1 VL
notes: humanized, hIgG1

EC50: 0.16 nM
Top (MFI): 22400 MFI
B9: 61H8C1 H2L1 hIgG1 (antibody, V domains shown)
VH: B1 VH
VL: B1 VL with T13A, S43A, S87Y
notes: humanized, hIgG1

EC50: 0.18 nM
Top (MFI): 21900 MFI
B10: 61H8C1 H2L4 hIgG1 (antibody, V domains shown)
VH: B1 VH
VL: B1 VL with Q3V, S60D, S63T, L73F, L78V, Q100G
notes: humanized, hIgG1

EC50: 0.17 nM
Top (MFI): 22200 MFI
B11: 61H8C1 H4L1 hIgG1 (antibody, V domains shown)
VH: B1 VH with V20L, R38K, M48I, R67K, V68A, M70L, T74K, V79A, E82Q
VL: B1 VL with T13A, S43A, S87Y
notes: humanized, hIgG1

EC50: 0.15 nM
Top (MFI): 20600 MFI
B12: 61H8C1 H3L1 hIgG1 (antibody, V domains shown)
VH: B1 VH with M48I, V68A, M70L, T74K, E82Q
VL: B1 VL with T13A, S43A, S87Y
notes: humanized, hIgG1

EC50: 0.19 nM
Top (MFI): 22100 MFI
B13: 61H8C1 H2L3 hIgG1 (antibody, V domains shown)
VH: B1 VH
VL: B1 VL with S60D, L73F, Q100G
notes: humanized, hIgG1

EC50: 0.15 nM
Top (MFI): 19600 MFI
B14: 61H8C1 H1L2 hIgG1 (antibody, V domains shown)
VH: B1 VH with A12K, I37V, G47W, A72R
VL: B1 VL
notes: humanized, hIgG1

EC50: 0.2 nM
Top (MFI): 20000 MFI
B15: 61H8C1 H1L3 hIgG1 (antibody, V domains shown)
VH: B1 VH with A12K, I37V, G47W, A72R
VL: B1 VL with S60D, L73F, Q100G
notes: humanized, hIgG1

EC50: 0.2 nM
Top (MFI): 22000 MFI
B16: 61H8C1 H3L4 hIgG1 (antibody, V domains shown)
VH: B1 VH with M48I, V68A, M70L, T74K, E82Q
VL: B1 VL with Q3V, S60D, S63T, L73F, L78V, Q100G
notes: humanized, hIgG1

EC50: 0.89 nM
Top (MFI): 7090 MFI
B17: 57F8H3F1 H2L2 hIgG1 (antibody, V domains shown)
VH: QVQLVQSGAEVVKPGASVKVSCKASGYTFTNYWMNWVRQAPGQGLEWIGRIDAYETETHYNQKFRDRVTMTVDTSTSTVYMELSSLRSEDTAVYYCARGYGHYYGVDYWGQGTLVTVSS
VL: DIQMTQSPSSLSASVGDRVTITCRASENVGNFGISFVNWFQQKPGKAPKLLIYAASNLGSGDPSRFSGSGSGTDFTLTISSLQPEDFATYFCQQSKGVPWTFGQGTKVEIK
notes: humanized, hIgG1

EC50: 0.91 nM
Top (MFI): 7270 MFI
B18: 57F8H3F1 H4L4 hIgG1 (antibody, V domains shown)
VH: B17 VH with V20L, R38K, A40R, V68A, T69I, M70L, T74K, V79A, S84R
VL: B17 VL with Q3V, M4L, V19A, A47P, S64A, Q104G, V108L
notes: humanized, hIgG1

EC50: 1.48 nM
Top (MFI): 8700 MFI
B19: 72B4H4 H2L2 hIgG1 (antibody, V domains shown)
VH: B17 VH with E55A, T56G, R65K, H102D, Y103A, V106M, Y108H
VL: B17 VL with N28S, G30D, F32Y, V37M, N57R, L58Q, G97E
notes: humanized, hIgG1

EC50: 0.98 nM
Top (MFI): 9040 MFI
B20: 72B4H4 H1L4 hIgG1 (antibody, V domains shown)
VH: B17 VH with V12K, I48M, E55A, T56G, R65K, V72R, H102D, Y103A, V106M, Y108H
VL: DIVLTQSPSSLSASVGDRATITCRASESVDNYGISFMNWFQQKPGKPPKLLIYAASRQGSGDPARFSGSGSGTDFTLTISSLQPEDFATYFCQQSKEVPWTFGGGTKLEIK
notes: humanized, hIgG1

EC50: 0.92 nM
Top (MFI): 7010 MFI
B21: 57F8H3F1 H2L3 hIgG1 (antibody, V domains shown)
VH: B17 VH
VL: B17 VL with M4L, S64A, Q104G
notes: humanized, hIgG1

EC50: 0.71 nM
Top (MFI): 8160 MFI
B22: 57F8H3F1 H3L1 hIgG1 (antibody, V domains shown)
VH: B17 VH with V20L, R38K, V68A, M70L, T74K
VL: B17 VL with F40Y, D62V, F91Y
notes: humanized, hIgG1

EC50: 1.01 nM
Top (MFI): 7140 MFI
B23: 57F8H3F1 H2L4 hIgG1 (antibody, V domains shown)
VH: B17 VH
VL: B17 VL with Q3V, M4L, V19A, A47P, S64A, Q104G, V108L
notes: humanized, hIgG1

EC50: 0.8 nM
Top (MFI): 7180 MFI
B24: 57F8H3F1 H4L3 hIgG1 (antibody, V domains shown)
VH: B17 VH with V20L, R38K, A40R, V68A, T69I, M70L, T74K, V79A, S84R
VL: B17 VL with M4L, S64A, Q104G
notes: humanized, hIgG1

EC50: 0.81 nM
Top (MFI): 8540 MFI
B25: 72B4H4 H1L2 hIgG1 (antibody, V domains shown)
VH: B17 VH with V12K, I48M, E55A, T56G, R65K, V72R, H102D, Y103A, V106M, Y108H
VL: B17 VL with N28S, G30D, F32Y, V37M, N57R, L58Q, G97E
notes: humanized, hIgG1

EC50: 0.63 nM
Top (MFI): 7020 MFI
B26: 57F8H3F1 H1L1 hIgG1 (antibody, V domains shown)
VH: B17 VH with V12K, I48M, V72R
VL: B17 VL with F40Y, D62V, F91Y
notes: humanized, hIgG1

EC50: 0.54 nM
Top (MFI): 8440 MFI
B27: 72B4H4 H1L1 hIgG1 (antibody, V domains shown)
VH: B17 VH with V12K, I48M, E55A, T56G, R65K, V72R, H102D, Y103A, V106M, Y108H
VL: B17 VL with N28S, G30D, F32Y, V37M, F40Y, N57R, L58Q, D62V, F91Y, G97E
notes: humanized, hIgG1

EC50: 1.3 nM
Top (MFI): 7610 MFI
B28: 57F8H3F1 H3L4 hIgG1 (antibody, V domains shown)
VH: B17 VH with V20L, R38K, V68A, M70L, T74K
VL: B17 VL with Q3V, M4L, V19A, A47P, S64A, Q104G, V108L
notes: humanized, hIgG1

EC50: 0.42 nM
Top (MFI): 7350 MFI
B29: 57F8H3F1 H4L1 hIgG1 (antibody, V domains shown)
VH: B17 VH with V20L, R38K, A40R, V68A, T69I, M70L, T74K, V79A, S84R
VL: B17 VL with F40Y, D62V, F91Y
notes: humanized, hIgG1

EC50: 1.25 nM
Top (MFI): 7420 MFI
B30: 57F8H3F1 H3L2 hIgG1 (antibody, V domains shown)
VH: B17 VH with V20L, R38K, V68A, M70L, T74K
VL: B17 VL
notes: humanized, hIgG1

EC50: 0.94 nM
Top (MFI): 7820 MFI
B31: 57F8H3F1 H1L4 hIgG1 (antibody, V domains shown)
VH: B17 VH with V12K, I48M, V72R
VL: B17 VL with Q3V, M4L, V19A, A47P, S64A, Q104G, V108L
notes: humanized, hIgG1

EC50: 1.62 nM
Top (MFI): 7610 MFI
B32: 57F8H3F1 H3L3 hIgG1 (antibody, V domains shown)
VH: B17 VH with V20L, R38K, V68A, M70L, T74K
VL: B17 VL with M4L, S64A, Q104G
notes: humanized, hIgG1

EC50: 0.78 nM
Top (MFI): 7510 MFI
B33: 57F8H3F1 H1L2 hIgG1 (antibody, V domains shown)
VH: B17 VH with V12K, I48M, V72R
VL: B17 VL
notes: humanized, hIgG1

EC50: 1 nM
Top (MFI): 8900 MFI
B34: 72B4H4 H1L3 hIgG1 (antibody, V domains shown)
VH: B17 VH with V12K, I48M, E55A, T56G, R65K, V72R, H102D, Y103A, V106M, Y108H
VL: B20 VL with V3Q, A19V, P47A, L108V
notes: humanized, hIgG1

EC50: 0.75 nM
Top (MFI): 7340 MFI
B35: 57F8H3F1 H4L2 hIgG1 (antibody, V domains shown)
VH: B17 VH with V20L, R38K, A40R, V68A, T69I, M70L, T74K, V79A, S84R
VL: B17 VL
notes: humanized, hIgG1

EC50: 0.38 nM
Top (MFI): 6910 MFI
B36: 57F8H3F1 H2L1 hIgG1 (antibody, V domains shown)
VH: B17 VH
VL: B17 VL with F40Y, D62V, F91Y
notes: humanized, hIgG1

EC50: 0.81 nM
Top (MFI): 7540 MFI
B37: 57F8H3F1 H1L3 hIgG1 (antibody, V domains shown)
VH: B17 VH with V12K, I48M, V72R
VL: B17 VL with M4L, S64A, Q104G
notes: humanized, hIgG1
